Patent publication US20260158070A1 (UNIVERSITY OF MARYLAND BALTIMORE, published 2026)

How the values were obtained:
[1] = target: T1, wild-type K-Ras 4A (in RASless MEFs) (Homo sapiens (Human), UniProt P01116 1-186); test: flow cytometry, surface staining of RASless MEFs, 10 µg/ml
T1 construct: Expressed by lentiviral transduction in RASless mouse embryonic fibroblasts; stained on live cells by flow cytometry, in lysates by western blot; also called MEF-K-Ras-4A

[2] = target: T2, wild-type K-Ras 4B (in RASless MEFs) (Homo sapiens (Human), UniProt P01116-2 1-185); test: as above
T2 construct: Expressed by lentiviral transduction in RASless mouse embryonic fibroblasts; stained on live cells by flow cytometry, in lysates by western blot; also called MEF-K-Ras-4B; 4B splice variant of K-Ras

- binding result [1]: binds
- binding result [2]: binds
B1: Human Anti-K-Ras Antibody 1 (antibody, human IgG1, lambda, N297G, V domains shown)
VH: EVQLVQSGGGVVQPGRSLRLSCAASGFTSRHPGMHWVRQAPGKGLEWVAVISHDGSKKYYADSVKGRFTISRDNSKNTLFVQLSSLRPEDTAVYYCATSLYSSMDLWGQGTTVTVSS
VL: QSVVTQPPSVSAAPGQKVTISCSGSNSNIGKNYVSWFQQVPGTAPKLLIFEDNQRPSGIPDRFSASKSGTSASLAISGLQSEDEADYYCAAWDDKFGVHWVFGGGTKLTVLG
notes: also called human K-Ras antibody 1; Human K-RAS Antibody 1
